The assay addresses T1, human ALK epitope peptide (amino acids 391-406 of the ALK protein) (human).
T1 construct: the underscore is a remnant of the underlining; In the yeast screen it was fused to LexA; in the ELISA it is called the Alk LBD peptide; also called Alk LBD peptide; AIk LBD
T1 peptide: GRIGRPDNPFRVALEY
Put plainly: ELISA (Fig. 5). On the technique in general: An ELISA detects its analyte on a solid surface through an enzyme-linked reagent.

By Kd is commonly meant the concentration at which binding is half-saturated. Read a low Kd as higher affinity.

B1: scFv 28.11 (scFv)
scFv: QSVLTQPPSVSAAPGQKVTISCSGSTSNIGDNYVSWYQQLPGTAPQLLIYDNTKRPSGIPDRFSGSKSGTSATLGITGLQTGDEADYYCATWDNDKWGVVFGGGTKLEVLGGGGGSGGGGSGGGGSSGGGSEVQLVESGGGLVQPGGSLRLSCAASGFTFSSYAMSWVRQAPGKGLEWVSAIETSSGSTYYADSVKGRFTISRDNSKNTLYLQMNSLRAEDTAVYYCARDAWLDVLSDGFDYWGQGTLVTVSS
B1 returned a Kd of 2 to 3 nM.

(Values after patent WO2008131575A2 (dated 2008).)
